Ends that are not written are not given here.
Columns and labels:
[1] = target: T1, recombinant human VCAM-1/Fc chimera (human, UniProt P19320 25-698); test: ELISA: peptide immobilized on the plate, VCAM-1/Fc at increasing concentrations (3.9×10^-9-4.9×10^-7 M), detected with a mouse anti-human VCAM-1 mAb; apparent Kd
T1 construct: The cell adhesion assay says only 'the VCAM-1 protein'; also called VCAM-1 molecule; VCAM-1 protein; not shown: Fc part of the chimera
T1 sequence (looked up): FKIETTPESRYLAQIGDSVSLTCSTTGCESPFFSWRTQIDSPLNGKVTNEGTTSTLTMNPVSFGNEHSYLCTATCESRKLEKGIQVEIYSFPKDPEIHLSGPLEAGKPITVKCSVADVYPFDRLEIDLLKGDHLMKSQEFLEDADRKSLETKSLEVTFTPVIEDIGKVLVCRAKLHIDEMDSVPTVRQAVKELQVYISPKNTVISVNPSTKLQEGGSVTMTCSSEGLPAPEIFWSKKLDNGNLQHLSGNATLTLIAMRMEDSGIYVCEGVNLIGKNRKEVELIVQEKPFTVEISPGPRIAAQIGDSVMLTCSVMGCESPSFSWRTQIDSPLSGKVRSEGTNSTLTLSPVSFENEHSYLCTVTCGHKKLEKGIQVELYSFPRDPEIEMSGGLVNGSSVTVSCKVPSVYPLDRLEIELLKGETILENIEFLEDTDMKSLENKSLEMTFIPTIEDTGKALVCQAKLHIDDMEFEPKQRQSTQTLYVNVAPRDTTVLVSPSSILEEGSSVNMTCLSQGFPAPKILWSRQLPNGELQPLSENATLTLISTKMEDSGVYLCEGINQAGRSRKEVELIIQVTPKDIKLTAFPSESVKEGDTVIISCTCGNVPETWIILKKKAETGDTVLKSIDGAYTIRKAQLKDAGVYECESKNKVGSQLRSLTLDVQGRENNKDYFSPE

[2] = target: T1, recombinant human VCAM-1/Fc chimera; test: cell-based or functional assay

Kd [1]: 135 nM | inhibition of cell adhesion (PMA-stimulated Jurkat cells on immobilized VCAM-1), IC50 [2]: 63 µM
Binder: CNNSKSHTC (not fully specified (bridges); also: cyclic, type of ring bond not given here, also called VCAM PEPTIDE) [cyclic peptide CNNSKSHTC (SEQ ID No. 2)]

— patent US20110200533A1 (GUERBET, published 2011)
